# Measured values as given in publication doi:10.1101/865998 (bioRxiv, 2019).
# Values joined by “and” are separate entries in the source; they are usually repeats but may differ in a detail not shown here. Identical values can stand only once. No end group written: not given here.
# Legend:
# [1] = molecular target: TM24 peptide expressed as a EYFP fusion in COS cells; assay: FRAP
# [2] = molecular target: the molecule itself; assay: SDS-PAGE without cross-linker
# FRAP = molecular target: the molecule itself; assay: FRAP
# native gel or EMSA = molecular target: the molecule itself; assay: native gel or EMSA
molecule,measurement,setting,value
TM24 peptide expressed as a EYFP fusion in COS cells (domain or fragment),stoichiometry N,[1],7
KKVGLLAFLGLLFCLGVAMFTYKK [TM24 peptide (20 residues of the CX3CL1 TM domain with 2 lysines added at each end)],stoichiometry N,[2],2
"KKVGLLAFLGLLFCLGVAMFTYKK (also: FITC conjugated, position not given here) [TM24-FITC]",binding result,FRAP,binds
"CX3CL1-EYFP fusion protein (L929 cells stably expressing CX3CL1, L_(CX3CL1)) (natural protein) QHHGVTKCNITCSKMTSKIPVALLIHYQQNQASCGKRAIILETRQHRLFCADPKEQWVKDAMQHLDRQAAALTRNGGTFEKQIGEVKPRTTPAAGGMDESVVLEPEATGESSSLEPTPSSQEAQRALGTSPELPTGVTGSSGTRLPPTPKAQDGGPVGTELFRVPPVSTAATWQSSAPHQPGPSLWAEAKTSEAPSTQDPSTQASTASSPAPEENAPSEGQRVWGQGQSPRPENSLEREEMGPVPAHTDAFQDWGPGSMAHVSVVPVSSEGTPSREPVASGSWTPKAEEPIHATMDPQRLGVLITPVPDAQAATRRQAVGLLAFLGLLFCLGVAMFTYQSLQGCPRKMAGEMAEGLRYIPRSCGSNSYVLVPV",stoichiometry N,native gel or EMSA,~3 and 5 and ≥ 3
